By Kd is commonly meant the free concentration of one partner at which half of the binding sites on the other are occupied at equilibrium, for simple one-to-one binding.

The text below walks through data of paper PMC11079029, “Intramolecular autoinhibition regulates the selectivity of PRPF40A tandem WW domains for proline-rich motifs” (Nature Communications, 2024).

First the molecules themselves.
B1: SF1 Pro BC: GB1-tagged SF1 construct, residues 468–594 (protein)
chain: GMMPPPPMGMMPPPPPPPSGQPPPPPSGPLPPWQQQQQQPPPPPPPSSSMASSTPLPWQQNTTTTTTSAGTGSIPPWQQQQAAAAASPGAPQMQGNPTMVPLPPGVQPPLPPGAPPPPPPPPPGSAG
modifications: left off: His6, N-terminal, state not stated | GB1, N-terminal, kept
B2: SF1 Pro BCD: GB1-tagged SF1 construct, residues 468–639 (protein)
chain: GMMPPPPMGMMPPPPPPPSGQPPPPPSGPLPPWQQQQQQPPPPPPPSSSMASSTPLPWQQNTTTTTTSAGTGSIPPWQQQQAAAAASPGAPQMQGNPTMVPLPPGVQPPLPPGAPPPPPPPPPGSAGMMYAPPPPPPPPMDPSNFVTMMGMGVAGMPPFGMPPAPPPPPPQN
modifications: left off: His6, N-terminal, state not stated | GB1, N-terminal, kept
B3: SF1 Pro ABCD: GB1-tagged SF1 construct, residues 410–639 (protein)
chain: GHPMQHNPNGPPPPWMQPPPPPMNQGPHPPGHHGPPPMDQYLGSTPVGSGVYRLHQGKGMMPPPPMGMMPPPPPPPSGQPPPPPSGPLPPWQQQQQQPPPPPPPSSSMASSTPLPWQQNTTTTTTSAGTGSIPPWQQQQAAAAASPGAPQMQGNPTMVPLPPGVQPPLPPGAPPPPPPPPPGSAGMMYAPPPPPPPPMDPSNFVTMMGMGVAGMPPFGMPPAPPPPPPQN
modifications: left off: His6, N-terminal, state not stated | GB1, N-terminal, kept
B4: SF3A1 C-ter Pro: GB1-tagged SF3A1 construct, residues 552–683 (protein)
chain: EIPQQPPPPSSATNIPSSAPPITSVPRPPTMPPPVRTTVVSAVPVMPRPPMASVVRLPPGSVIAPMPPIIHAPRINVVPMPPSAPPIMAPRPPPMIVPTAFVPAPPVAPVPAPAPMPPVHPPPPMEDEPTSK
modifications: left off: His6, N-terminal, state not stated | GB1, N-terminal, kept
B5: SF1 Pro B: GB1-tagged SF1 construct, residues 468–539 (protein)
chain: GMMPPPPMGMMPPPPPPPSGQPPPPPSGPLPPWQQQQQQPPPPPPPSSSMASSTPLPWQQNTTTTTTSAGTG
modifications: left off: His6, N-terminal, state not stated | GB1, N-terminal, kept
B6: SF1 Pro CD: GB1-tagged SF1 construct, residues 539–639 (protein)
chain: GSIPPWQQQQAAAAASPGAPQMQGNPTMVPLPPGVQPPLPPGAPPPPPPPPPGSAGMMYAPPPPPPPPMDPSNFVTMMGMGVAGMPPFGMPPAPPPPPPQN
modifications: left off: His6, N-terminal, state not stated | GB1, N-terminal, kept

T1 sequence (O75400 141-236): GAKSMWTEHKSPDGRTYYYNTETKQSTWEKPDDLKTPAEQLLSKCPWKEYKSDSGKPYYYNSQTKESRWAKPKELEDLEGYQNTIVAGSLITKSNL

One assay addresses T1, PRPF40A WW12 (tandem WW domains, residues 141–236) (Homo sapiens, UniProt O75400).
T1 construct: WW12 141–236, WW12long 141–248, and N-ext-WW12 56–236; 6xHis-TEV site (N, cleaved yes); made in house; host or cells: Escherichia coli BL21(DE3)
Nature of the assay: ITC of PRPF40A WW12 with GB1-tagged proline-rich peptides and constructs. Format: binding. The settings on record: ITC binding enthalpy, as E4. The source says:
PRPF40A isoform 1 sequences (N-ter 1–310, WW12short 141–223, WW12 141–236, WW12long 141–248, and N-ext-WW12 56–236) were amplified from a purchased DNA fragment (IDT) and cloned using NcoI and KpnI restriction sites into a pETM11 vector encoding 6xHis and TEV cleavage site as a N-terminal tag. SF1 (Pro A 410–468, Pro B 468–539, Pro C 539–594, Pro D 594–639, Pro BC 468–594, Pro CD 539–639, Pro BCD 468–639 and Pro ABCD 410–639) and SF3A1 (Middle Pro 364–413 and C-ter Pro 552–683) constructs were prepared in a similar manner using a pET24 vector with a 6xHis, GB1 and TEV cleavage site as N-terminal fusion cassette. 16-mer SF1 constructs (Table 1) and polyproline peptides (P6, P8, P10, P13, P16, P19, P22, P25, and P29) were cloned in the same pET24 vector with GB1 tag by direct ligation of purchased oligonucleotides (Eurofins). All peptide sequences contained N and C-terminal common residues to avoid boundary effects on binding: TEVsite-GAMSGS-peptide-SGSN. Mutants of PRPF40A WW12 and N-ext-WW12 constructs were prepared by site-directed mutagenesis. The truncated version of PRPF40A WW12 (141-217) was a gift from Dr. María Macías (IRB, Spain). All used oligonucleotides were purchased from Eurofins Genomics and are shown in Supplementary Table 6.
Resuspended cell pellets in 20 mM Tris pH 8.0, 500 mM NaCl, 10 mM imidazole, 0.5 mM TCEP, and protease inhibitors mix (SERVA) were lysed by cell disruption in a French press. Clear lysates, after centrifugation (at 18,000 g) and filtering, were loaded into Ni-NTA resin. The resin was then washed with 20 mM imidazole containing buffer, and the desired protein was eluted with 500 mM imidazole. PRPF40A constructs were then subjected to TEV protease treatment (homemade at a final concentration of ≈50 μg/ml), dialyzed overnight at 4 °C against an imidazole-free buffer, and then loaded again to Ni-NTA resin; desired digested proteins were obtained in the flow-through and wash fractions while uncleaved protein, TEV protease, and impurities remained bound to the resin. Cleaved PRPF40A proteins and GB1-tagged SF1, SF3A1, and polyproline constructs were further purified by size-exclusion chromatography on a HiLoad 16/60 Superdex 75 column (GE Healthcare) equilibrated with 20 mM sodium phosphate, pH 6.5, 100 mM NaCl and 1 mM DTT buffer. For the purification of PRPF40A WW12 in complex with SF1 peptide, cell pellets of recombinant expression for both proteins were mixed and processed together following the Ni-NTA—TEV digestion—reverse Ni-NTA—SEC-75 protocol; where the complex remained bound in a 1:1 stoichiometry throughout the whole purification (corroborated by NMR). Molecular weight of each sample was confirmed by mass spectrometry, purity was checked by PAGE-SDS, and protein concentrations were determined from the aromatic contribution to the UV absorbance spectra at 280 nm.
Experiments were conducted on a MicroCAl PEAQ-ITC (Malvern Instruments, UK) at 25 °C in 20 mM sodium phosphate pH 6.5 and 100 mM NaCl. PRPF40A was titrated into N-terminal GB1 tagged SF1 or polyproline constructs and vice versa with similar results. Protein concentrations in the cell were around 20–40 μM, while in the syringe ranged between 200 and 500 μM. Experiments were performed at least in duplicate with injections of 1.5 μL (0.4 μL for first point) separated by 150 s delays to recover thermal power baseline and continuous stirring in the cell (750 rpm) for correct mixing. The reference cell was filled with water in all experiments. Data were processed by removing the blank experiment (using digested GB1 fusion protein) and adjusted to one-site binding model with Malvern PEAQ-ITC Analysis software (Malvern Instruments, UK).
As for B1, the “DH” value is -28.99 ± 1.65 kcal/mol.
Consider B2, for which the “DH” value is -65.49 ± 8.6 kcal/mol.
Consider B3, for which the “DH” value is -67.04 ± 9.68 kcal/mol.
Regarding B4, the “DH” value was -68.83 ± 18.8 kcal/mol.
Same read-out and setting: in the case of B5 it was -17.3 ± 3.27 kcal/mol; in that of B6, -46.2 ± 3.11 kcal/mol.

Still in this assay, the particulars now being: source data of Fig. 4C,D; ITC as E4; individual value 1; read-out: Kd (mM), Individual values.
As for B1, the Kd stood at 0.00363 mM.
For the molecule B2, the Kd was found to be 0.00293 mM.
Consider B3, for which the Kd was 0.00541 mM.
In the case of B4, the Kd is 0.0238 mM.
Still for that read-out and setting: in the case of B6 it was 0.00283 mM.

Staying with this assay, now noted: source data of Fig. 4C,D; ITC as E4; individual value 2; read-out: Kd (mM), Individual values.
For the molecule B1, the Kd was 0.00776 mM.
In the case of B2, the Kd worked out at 0.00436 mM.
As to B3, the Kd is 0.0044 mM.
The same measure, in the same setting: the same measure for B4: 0.0148 mM; for B6: 0.00432 mM.

The same assay, now with this note: source data of Fig. 4C; ITC as E4; individual value 3; read-out: Kd (mM), Individual values.
As for B1, the Kd was 0.00911 mM.
B6: the Kd is 0.00426 mM.
